# Test results: patent US20240116985A1 (published 2024)
# Starred links: 1 amine or outer side, 2 acyl side, 3 side chain; linkers in the order of their positions; H or OH if unused. Positions of bridges follow the written chain, without caps; N, C: chain ends. Non-standard residues stand in square brackets, D forms with d. Primed or numbered codes have the meaning given here. PyrS2″ = (S)-3-amino-1-((pent-4-en-1-yloxy)carbonyl)pyrrolidine-3-carboxylic acid (stapling residue), C=CCCCOC(=O)N1CC[C@@](N[*:1])(C(=O)[*:2])C1; SeN″ = (S)-5-(((allyloxy)carbonyl)(methyl)amino)-2-amino-2-methylpentanoic acid (stapling residue), C=CCOC(=O)N(C)CCC[C@](C)(N[*:1])C(=O)[*:2]; B5(16) = 2-amino-2-(pent-4-en-1-yl)hept-6-enoic acid = 2,2-bis(4-pentenyl)glycine (stitching residue), C=CCCCC(CCCC=C)(N[*:1])C(=O)[*:2]; B5(23) = 2-amino-2-(pent-4-en-1-yl)hept-6-enoic acid (2,2-bis(4-pentenyl)glycine), stitching residue, C=CCCCC(CCCC=C)(N[*:1])C(=O)[*:2]; B5(24) = 2-amino-2-(pent-4-en-1-yl)hept-6-enoic acid, 2,2-bis(4-pentenyl)glycine (stitching residue), C=CCCCC(CCCC=C)(N[*:1])C(=O)[*:2]; B5(3) = 2,2-bis(4-pentenyl)glycine (stitching residue), C=CCCCC(CCCC=C)(N[*:1])C(=O)[*:2]; Phe(3-CF3) = N[C@@H](Cc1cccc(C(F)(F)F)c1)C(=O)O; Phe(3-OMe) = COc1cccc(C[C@H](N)C(=O)O)c1; Phe(2-Cl) = N[C@@H](Cc1ccccc1Cl)C(=O)O; Phe(3-F) = N[C@@H](Cc1cccc(F)c1)C(=O)O; His(τ-Me) = Cn1cnc(C[C@H](N)C(=O)O)c1; Bta = N[C@@H](Cc1csc2ccccc12)C(=O)O; Lys(iPr) = CC(C)NCCCC[C@H](N)C(=O)O; αAllylPro = C=CC[C@@]1(C(=O)O)CCCN1; tBuAla = CC(C)(C)C[C@H](N)C(=O)O; Cha = N[C@@H](CC1CCCCC1)C(=O)O; S8 = C=CCCCCCC[C@](C)(N)C(=O)O; hSer = N[C@@H](CCO)C(=O)O
# T1: B-cat-Halo (UniProt P35222 1-781)
# T1 sequence (looked up): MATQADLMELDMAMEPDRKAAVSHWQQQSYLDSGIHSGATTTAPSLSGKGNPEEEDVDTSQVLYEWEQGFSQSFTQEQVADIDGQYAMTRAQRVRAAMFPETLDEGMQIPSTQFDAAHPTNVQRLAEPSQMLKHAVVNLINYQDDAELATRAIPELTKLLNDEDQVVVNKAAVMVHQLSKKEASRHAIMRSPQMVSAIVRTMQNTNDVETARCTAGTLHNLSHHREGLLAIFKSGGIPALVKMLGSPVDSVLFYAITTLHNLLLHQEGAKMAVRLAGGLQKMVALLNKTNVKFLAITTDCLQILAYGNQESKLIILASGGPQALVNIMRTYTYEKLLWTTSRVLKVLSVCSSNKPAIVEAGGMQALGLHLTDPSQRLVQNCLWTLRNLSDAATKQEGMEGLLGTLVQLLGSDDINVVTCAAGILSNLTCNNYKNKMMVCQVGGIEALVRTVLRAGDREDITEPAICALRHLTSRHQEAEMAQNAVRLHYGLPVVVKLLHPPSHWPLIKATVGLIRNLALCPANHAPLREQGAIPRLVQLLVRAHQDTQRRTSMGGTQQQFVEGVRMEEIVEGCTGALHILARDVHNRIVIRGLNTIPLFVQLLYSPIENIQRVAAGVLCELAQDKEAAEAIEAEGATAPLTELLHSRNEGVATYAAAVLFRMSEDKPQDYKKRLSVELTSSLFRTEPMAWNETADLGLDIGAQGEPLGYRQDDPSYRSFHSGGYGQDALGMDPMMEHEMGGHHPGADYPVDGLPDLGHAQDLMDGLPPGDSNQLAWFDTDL
# T2: full-length beta-Catenin (Uniprot ID P35222) (Homo sapiens (Human), UniProt P35222 2-781)
# T2 construct: also called bCat; B-Catenin
# T2 sequence: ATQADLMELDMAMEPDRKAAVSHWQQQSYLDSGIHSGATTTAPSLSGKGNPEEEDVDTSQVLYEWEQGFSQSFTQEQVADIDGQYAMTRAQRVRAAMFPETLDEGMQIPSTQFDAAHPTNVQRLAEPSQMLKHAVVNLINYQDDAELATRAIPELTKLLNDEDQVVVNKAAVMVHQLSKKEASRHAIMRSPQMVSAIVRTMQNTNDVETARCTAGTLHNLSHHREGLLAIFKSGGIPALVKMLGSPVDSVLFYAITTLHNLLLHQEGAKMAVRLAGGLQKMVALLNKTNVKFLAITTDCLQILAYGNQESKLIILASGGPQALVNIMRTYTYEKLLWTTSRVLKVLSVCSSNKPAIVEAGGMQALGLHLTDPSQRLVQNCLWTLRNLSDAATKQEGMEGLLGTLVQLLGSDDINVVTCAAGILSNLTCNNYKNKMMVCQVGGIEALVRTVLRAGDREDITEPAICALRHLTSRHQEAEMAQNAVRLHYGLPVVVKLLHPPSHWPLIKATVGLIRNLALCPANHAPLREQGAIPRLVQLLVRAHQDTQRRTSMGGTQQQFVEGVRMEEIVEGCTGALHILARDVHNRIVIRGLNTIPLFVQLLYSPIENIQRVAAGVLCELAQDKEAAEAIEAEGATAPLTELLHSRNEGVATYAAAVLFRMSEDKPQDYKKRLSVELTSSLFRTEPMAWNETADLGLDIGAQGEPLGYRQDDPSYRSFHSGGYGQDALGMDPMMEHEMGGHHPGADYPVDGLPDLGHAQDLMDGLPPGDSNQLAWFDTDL
# Target: T1, B-cat-Halo
# Assay: cell-based or functional assay
row,Binder,NanoBRET Abs IC50
1,"Ac-[αAllylPro]D[Cha][B5(3)]DDAA[Phe(3-OMe)]S[PyrS2″]F[Bta]Q-NH2 (staple 1-4, 4-11) [I-1124]",> 20 µM
2,"Ac-[αAllylPro]D[Cha][B5(3)]DDAA[Phe(3-CF3)]S[PyrS2″]F[Bta]Q-NH2 (staple 1-4, 4-11) [I-1125]",> 20 µM
3,"Ac-[αAllylPro]D[Cha][B5(24)]DDAAFL[PyrS2″][Phe(2-Cl)][Bta]T-NH2 (staple 1-4, 4-11) [I-1139]",18 µM
4,"Ac-[αAllylPro]D[Cha][B5(24)]DDAAFS[PyrS2″][Phe(2-Cl)][Bta]L-NH2 (staple 1-4, 4-11) [I-1138]",19.8 µM
5,"Ac-[αAllylPro]D[tBuAla][B5(24)]DD[Lys(iPr)]AFN[PyrS2″][Phe(2-Cl)][Bta]Q-NH2 (staple 1-4, 4-11) [I-1131]",18.8 µM
6,"Ac-[αAllylPro]D[Cha][B5(24)]DDAAFS[PyrS2″][Phe(2-Cl)][Bta][hSer]-NH2 (staple 1-4, 4-11) [I-1137]",12 µM
7,"Ac-[αAllylPro]D[tBuAla][B5(24)]DDA[Lys(iPr)]FN[PyrS2″][Phe(2-Cl)][Bta]Q-NH2 (staple 1-4, 4-11) [I-1132]",> 20 µM
8,"Ac-[αAllylPro]D[Cha][B5(24)]DDAAFS[PyrS2″][Phe(2-Cl)][Bta][dT]-NH2 (staple 1-4, 4-11) [I-1136]",14.9 µM
9,"Ac-[αAllylPro]D[tBuAla][B5(24)]DDAAFN[PyrS2″][Phe(2-Cl)][Bta][Lys(iPr)]-NH2 (staple 1-4, 4-11) [I-1130]",7.6 µM

# Target: T2, full-length beta-Catenin (Uniprot ID …)
# Assay: fluorescence polarization competition; 10 nM full-length beta-catenin + 10 nM 5FAM-TCF4(10-53) probe, peptide titrated
# Procedure: The plate was incubated protected from light for 60 minutes at 20° C. prior to read. Reads were performed on a CLARIOstar plate reader (BMG Labtech) in duplicate, and data were fitted to a 1:1 binding model with hill slope using an in-house script. All provided concentrations are final concentrations.
row,Binder,EC50
1,"Ac-[αAllylPro]DA[B5(16)]DHAAFQ[SeN″][Phe(3-F)][Bta]Q-NH2 (staple 1-4, 4-11; not fully specified; printed as Ac-PL3-Asp-Ala-B5-Asp-His-Ala-Ala-Phe-Gln-SeN-3FF-BztA-Gln-NH2, Stapled (stitched) peptide) [I-400]",3.59 µM
2,"Ac-[αAllylPro]DA[B5(23)]DEAAFT[S8]F[Bta]Q-NH2 (staple 1-4, 4-11, Stapled (stitched) peptide) [I-423]",0.105 µM
3,"Ac-[αAllylPro]DA[B5(23)]D[His(τ-Me)]AAFV[S8][Phe(3-F)][Bta]Q-NH2 (staple 1-4, 4-11, Stapled (stitched) peptide) [I-403]",2.13 µM
4,"Ac-[αAllylPro]DA[B5(23)]DEAAFT[S8]F[Bta]H-NH2 (staple 1-4, 4-11, Stapled (stitched) peptide) [I-420]",0.128 µM
5,"Ac-[αAllylPro]DV[B5(23)]DEAAFQ[S8]F[Bta]Q-NH2 (staple 1-4, 4-11, Stapled (stitched) peptide) [I-410]",0.05 µM
